Assay results as given in PMC7855945 (Cellular microbiology, 2020).

Molecular target: the molecule itself
Assay: SEC

B1: recombinant A. fumigatus Hsp90 (rAfHsp90), full length, 6×His-tagged (natural protein)
chain: not shown
stoichiometry N: 2
